These results are taken from paper PMC10499821.

B1: unnamed (parent)
chain 1: NNELSPVALRQMSCAAGTTQTACTDDNALAYYNTTKGGRFVLALLSDLQDLKWARFPKSDGTGTIYTELEPPCRFVTDTPKGPKVKYLYFIKGLNNLNRGMVLGSLAATVRLQ
chain 2: AEGIDIGEMPSYDLVL

In this assay the parent is B1. The experiment in a line: fluorescence polarisation saturation. The conditions noted are these: with partner chain of the complex shown. In general terms: Fluorescence polarisation rises when a labelled molecule tumbles more slowly, as on binding a larger partner.
Turning to chain 1 NNELSPVALRQMSCAAGTTQTACTDDNALAYYNTTKGGRFVLALLSDLQDLKWARFPKSDGTGTIYTELEPPCRFVTDTPKGPKVKYLYFIKGLNNLNRNMVLDSLAATVRLQ, the dissociation constant (Kd) (as a rule, the free concentration of one partner at which half of the binding sites on the other are occupied at equilibrium, for simple one-to-one binding) amounted to 20 µM.
